The text below walks through data of paper PMC7950132 (Molecular & Cellular Proteomics : MCP, 2021).

The assay concerns the target T1, CUL5(NEDD8) (human, UniProt Q93034 1-780; Q15843 1-76, NEDD8 attached at K724).
T1 construct: cullin 5, human; NEDD8, human, conjugated to CUL5; Always present together with RBX2 and ELOB/C in the experiments; written alone for the pairs inside the complexes; The His tag on CUL5 served the Ni-NTA step before TEV cleavage; also called neddylated CUL5; source: E. coli BL21, coexpressed with RBX2 and ELOB/C, neddylated in mixed lysates, purified (Ni-NTA, SEC); not shown: His6, N-terminal, …
Description: SEC; ARIH2 mixed with an equimolar amount of ELOB/C-CUL5(NEDD8)-RBX2 or ELOB/C-CUL5-RBX2, separated by size exclusion; fractions on SDS-PAGE. The conditions noted are these: both partners purified.

T1 sequence (Q93034 whole entry, chain 1 of 2): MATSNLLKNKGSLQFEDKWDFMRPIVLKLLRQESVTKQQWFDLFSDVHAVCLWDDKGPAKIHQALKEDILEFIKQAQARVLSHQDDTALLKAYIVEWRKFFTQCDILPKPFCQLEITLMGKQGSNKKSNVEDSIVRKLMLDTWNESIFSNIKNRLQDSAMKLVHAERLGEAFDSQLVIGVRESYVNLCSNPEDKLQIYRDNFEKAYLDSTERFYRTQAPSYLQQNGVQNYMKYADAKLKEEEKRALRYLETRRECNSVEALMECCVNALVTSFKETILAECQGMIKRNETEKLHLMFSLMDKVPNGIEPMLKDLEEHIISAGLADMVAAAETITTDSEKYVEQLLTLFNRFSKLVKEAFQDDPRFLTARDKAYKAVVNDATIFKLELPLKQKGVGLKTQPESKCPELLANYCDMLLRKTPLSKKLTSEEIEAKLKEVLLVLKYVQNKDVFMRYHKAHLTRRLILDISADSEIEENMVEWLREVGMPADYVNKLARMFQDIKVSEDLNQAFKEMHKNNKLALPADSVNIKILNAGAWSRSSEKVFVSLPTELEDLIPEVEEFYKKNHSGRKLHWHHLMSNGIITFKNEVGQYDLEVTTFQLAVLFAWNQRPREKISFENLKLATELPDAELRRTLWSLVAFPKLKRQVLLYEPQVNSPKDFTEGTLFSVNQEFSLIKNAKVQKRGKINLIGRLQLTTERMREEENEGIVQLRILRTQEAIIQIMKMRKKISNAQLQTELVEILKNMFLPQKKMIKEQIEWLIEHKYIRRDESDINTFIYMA
T1 sequence (Q15843 1-76, chain 2 of 2): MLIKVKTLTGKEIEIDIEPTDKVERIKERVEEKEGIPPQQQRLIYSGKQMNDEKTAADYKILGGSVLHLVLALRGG

B1: Ariadne RBR E3 ubiquitin protein ligase 2 (ARIH2) (enzyme, human, UniProt O95376 1-493, looked up)
chain: MSVDMNSQGSDSNEEDYDPNCEEEEEEEEDDPGDIEDYYVGVASDVEQQGADAFDPEEYQFTCLTYKESEGALNEHMTSLASVLKVSHSVAKLILVNFHWQVSEILDRYKSNSAQLLVEARVQPNPSKHVPTSHPPHHCAVCMQFVRKENLLSLACQHQFCRSCWEQHCSVLVKDGVGVGVSCMAQDCPLRTPEDFVFPLLPNEELREKYRRYLFRDYVESHYQLQLCPGADCPMVIRVQEPRARRVQCNRCNEVFCFKCRQMYHAPTDCATIRKWLTKCADDSETANYISAHTKDCPKCNICIEKNGGCNHMQCSKCKHDFCWMCLGDWKTHGSEYYECSRYKENPDIVNQSQQAQAREALKKYLFYFERWENHNKSLQLEAQTYQRIHEKIQERVMNNLGTWIDWQYLQNAAKLLAKCRYTLQYTYPYAYYMESGPRKKLFEYQQAQLEAEIENLSWKVERADSYDRGDLENQMHIAEQRRRTLLKDFHDT
notes: ARIH2, human, codon-optimised synthetic gene; also called ARIH2 RBRL; source: E. coli BL21, purified (Ni-NTA, SEC); not shown: His6, N-terminal, cleaved; MBP, N-terminal, cleaved
As to B1, the binding result is on record as “binds”.
